Assay in all cases: model substrate hydrolysis, Michaelis-Menten fit
Holding throughout (type): biochemical, Dysgonomonas mossii
Holding throughout (settings): 37 °C

Substrate in data set [1]: CC(=O)Oc1ccc([N+](=O)[O-])cc1
From the text:
(§1) model substrate hydrolysis, Michaelis-Menten fit on DmCE1A

Substrate in data set [2]: CC(=O)Oc1ccc2c(C)cc(=O)oc2c1
Text: as §1

Substrate in data set [3]: COC(=O)/C=C/c1cc(OC)c(O)c(OC)c1
Text: as §1

Substrate in data set [4]: CC(=O)Oc1ccc2c(C)cc(=O)oc2c1
From the text: (§2) model substrate hydrolysis, Michaelis-Menten fit on DmCE1B_nt
This is another data set of the same source.

Substrate in data set [5]: COC(=O)/C=C/c1cc(OC)c(O)c(OC)c1
Text: as §2
This is another data set of the same source.

Substrate in data set [6]: COC(=O)/C=C/c1ccc(O)c(OC)c1
Text: as §2

Substrate in data set [7]: COC(=O)/C=C/c1ccc(O)cc1
Text: as §2

Substrate in data set [8]: CC(=O)Oc1ccc([N+](=O)[O-])cc1
From the text: (§3) model substrate hydrolysis, Michaelis-Menten fit on DmCE6A
The source holds these as a separate data set.

Substrate in data set [9]: CC(=O)Oc1ccc2c(C)cc(=O)oc2c1
Text: as §3
This is another data set of the same source.

Substrate in data set [10]: CC(=O)Oc1ccc2c(C)cc(=O)oc2c1
The text has this: model substrate hydrolysis, Michaelis-Menten fit on DmCE1B_ct
The source holds these as a separate data set.

Substrate in data set [11]: CC(=O)Oc1ccc2c(C)cc(=O)oc2c1
The text has this:
(§4) model substrate hydrolysis, Michaelis-Menten fit on DmCE1B
The source holds these as a separate data set.

Substrate in data set [12]: COC(=O)/C=C/c1cc(OC)c(O)c(OC)c1
Text: as §4
This is another data set of the same source.

B1: DmCE1A (Dysgonomonas mossii DSM 22836) (protein)
chain: QDLEGSISSEYNIPEGQYPIVNKDLSATFRIQAPSAQSMQVDICGKKYPMTKDAAGIWEATTDPLVVGFHYYFLLIDGVSVVDPASQTFFGCGRMASGIEIPEPRAESAYYSYQKDIPHGQVRECYYFSKVEGKQRRCFLYTPAEYETNPTKRYPVLYLQHGMGEDETGWSRQGKMAFILDNQISEKKCVPMIVVMDYGNCGYIHGTKKGESQKEFGALFTPILINDIIPYIDSNFRTLSDRDNRAMAGLSWGGHQAFETTLNNIDKFSHIGAFSGALFFLKEDNLKKAYNGVFAQPNVFNKKVHTLFLGMGSEEGMGSKRISEFLKANGINNTYYESAGTHHEWLTWRRCLNQFLPLIFKQN
notes: signal peptide removed; N-terminal CBM48 + CE1 domain; pET28a-TEVc, IMAC purified from E. coli BL21(DE3)
B1: the figures for the Michaelis-Menten constant (Km) in [1], in data set [2] and in data set [3] were 4.4 ± 0.67 mM, 0.55 ± 0.06 mM and 0.18 ± 0.04 mM, respectively. Also, the kcat (as a rule, the maximal rate divided by the concentration of active sites) was 1.03 ± 0.07 s⁻¹ in data set [1], 38.6 ± 1.26 s⁻¹ in data set [2] and 0.13 ± 0.01 s⁻¹ in data set [3]. Besides, the specificity constant (kcat/Km) (commonly the second-order rate constant that governs catalysis at low substrate concentration) in data set [1] came out at 230 ± 40 M⁻¹ s⁻¹; in data set [2], 70000 ± 8000 M⁻¹ s⁻¹; in data set [3] it was 700 ± 200 M⁻¹ s⁻¹.

B2: DmCE1B_nt (Dysgonomonas mossii DSM 22836) (protein)
chain: ISQNYKSVPNGYDIPRTGISHGQIDTVTYYSKTVDTNRKALVYTPPGYSKNKQYPVLYLLHGIGGDEKEWFSHGQPQVILDNLYADKKIVPMIVVLPNGRAMKDDRAIGNIMEAPKVEAFATFEKDLLNDLIPFIQKTYPVLKNQENRALAGLSMGGGQSLNFGLGNLDIFAWVGGFSSAPNTKTPEVLVPNPDDAKKKLKLLWISCGDKDGLLSFSKRTHDYLAKNQVPHVYQVIPNGYHDFNIWKQNLYMFSQLLFKPVTADLIEQYSYIPEEAEVGISASTNIPGAQYPQILSGNRVLFRIKAPDAKRVQVDLGKKYDMVREEEGSWAITTDPIVEGFHYYSILIDGVAVCDPASRTFYGMSRMASGIEIPE
notes: N-terminal CE1 domain + CBM48 (CBM48 is residues 294-393), signal peptide removed; IMAC purified from E. coli BL21(DE3)
As for B2, the Michaelis-Menten constant (Km) (as a rule, the concentration of substrate that gives half-maximal velocity) is reported as 0.30 ± 0.04 mM in data set [4], 0.29 ± 0.07 mM in [5], 0.16 ± 0.03 mM in [6] and 0.31 ± 0.09 mM in [7]. In addition, the turnover number (kcat) in data set [4] amounted to 630 ± 22 s⁻¹; in data set [5] it was 2.7 ± 0.34 s⁻¹; in [6], 1.8 ± 0.13 s⁻¹; in data set [7], 0.61 ± 0.1 s⁻¹. For the same protein, the kcat/Km in [4] was 2.1e+06 ± 300000 M⁻¹ s⁻¹; in data set [5], 9200 ± 2400 M⁻¹ s⁻¹; in [6], 11000 ± 2000 M⁻¹ s⁻¹; in data set [7], 2000 ± 700 M⁻¹ s⁻¹.

B3: DmCE6A (Dysgonomonas mossii DSM 22836) (protein)
chain: QDKFHVFLCFGQSNMEGHAKIEAQDTIDIDGRFMMLQTVDCPELGRFKGNWYKAIPPLARCHTGLSPADYFGRTMVANLPSDTKVGVINVAVGGCRIELFDKENFQSYVDQSPEWLKNMVNEYDGNPYVRLIEMAKLAQSQGGVIKGILLHQGESNNGETDWPEKVRKVYDNILKDLNFEPNSIPLLAGELLDEEQYGACANMNLIINTLPNVIPNAHVISSKGCEGVKDRLHFSAAGYRTLGSRYAEKMLQLYNENSLKK
notes: signal peptide removed; single CE6 domain; pET28a-TEVc, IMAC purified from E. coli BL21(DE3)
For the protein B3, in [8], the Michaelis-Menten constant (Km) amounted to 0.18 ± 0.01 mM, the turnover number (kcat) was 59 ± 0.87 s⁻¹ and the kcat/Km was found to be 320000 ± 20000 M⁻¹ s⁻¹. For the same protein, the Michaelis constant (Km) in [9] is on record as 0.029 ± 0.003 mM.

B4: DmCE1B_ct (Dysgonomonas mossii DSM 22836) (protein)
chain: AEVGISASTNIPGAQYPQILSGNRVLFRIKAPDAKRVQVDLGKKYDMVREEEGSWAITTDPIVEGFHYYSILIDGVAVCDPASRTFYGMSRMASGIEIPEEGVDYYNLKNVPHGQIRQIRYFSDVTKAWRRAFVYTPAGYDANTSQRYPVLYLQHGGGEDETGWPNQGKMDAIIDNLIAEGKAKPMIVVMDNGYAVDPSASSANSPQGLRGLFQNSALEKVFINEIIPLVDKEFRTIADRDHRAMAGLSMGGFQAFQIAMTNLDKFAYVGGFSGGGIIEQGGDFSKMYNNVWSDVDTFNKRVKLIYLSIGTAEPTNMYQTVNNFHKEFEKAGIKHVYYESPGTSHEWLTWRRSLNQFAELLFK
notes: dimer; IMAC purified from E. coli BL21(DE3)
Take B4: in [10], the Km was 0.42 ± 0.10 mM, the kcat was determined as 11 ± 0.71 s⁻¹ and the kcat/Km was found to be 26000 ± 6600 M⁻¹ s⁻¹.

B5: DmCE1B (Dysgonomonas mossii DSM 22836) (protein)
chain: ISQNYKSVPNGYDIPRTGISHGQIDTVTYYSKTVDTNRKALVYTPPGYSKNKQYPVLYLLHGIGGDEKEWFSHGQPQVILDNLYADKKIVPMIVVLPNGRAMKDDRAIGNIMEAPKVEAFATFEKDLLNDLIPFIQKTYPVLKNQENRALAGLSMGGGQSLNFGLGNLDIFAWVGGFSSAPNTKTPEVLVPNPDDAKKKLKLLWISCGDKDGLLSFSKRTHDYLAKNQVPHVYQVIPNGYHDFNIWKQNLYMFSQLLFKPVTADLIEQYSYIPEEAEVGISASTNIPGAQYPQILSGNRVLFRIKAPDAKRVQVDLGKKYDMVREEEGSWAITTDPIVEGFHYYSILIDGVAVCDPASRTFYGMSRMASGIEIPEEGVDYYNLKNVPHGQIRQIRYFSDVTKAWRRAFVYTPAGYDANTSQRYPVLYLQHGGGEDETGWPNQGKMDAIIDNLIAEGKAKPMIVVMDNGYAVDPSASSANSPQGLRGLFQNSALEKVFINEIIPLVDKEFRTIADRDHRAMAGLSMGGFQAFQIAMTNLDKFAYVGGFSGGGIIEQGGDFSKMYNNVWSDVDTFNKRVKLIYLSIGTAEPTNMYQTVNNFHKEFEKAGIKHVYYESPGTSHEWLTWRRSLNQFAELLFK
notes: full length, signal peptide removed; CE1-CBM48-CE1; dimer in solution; pET28a-TEVc, IMAC purified from E. coli BL21(DE3)
In the case of B5, in data set [11], the Michaelis-Menten constant (Km) stood at 0.37 ± 0.06 mM, the turnover number (kcat) came to 870 ± 3 s⁻¹ and the specificity constant (kcat/Km) came to 2.3e+06 ± 400000 M⁻¹ s⁻¹. Further, in data set [12], the Km amounted to 0.36 ± 0.10 mM, the kcat worked out at 5 ± 0.83 s⁻¹ and the specificity constant (kcat/Km) came out at 14000 ± 4500 M⁻¹ s⁻¹.

Source of the values: PMC8040265, “A polysaccharide utilization locus from the gut bacterium Dysgonomonas mossii encodes functionally distinct carbohydrate esterases” (The Journal of Biological Chemistry, 2021).
